By stoichiometry N is commonly meant the number of molecules, sites or subunits per partner or assembly.

Experiment [1] has as its target T1, AaADH2 (Artemisia annua, UniProt E5DD06).
T1 construct: gene Adh2
T1 sequence (E5DD06 1-265): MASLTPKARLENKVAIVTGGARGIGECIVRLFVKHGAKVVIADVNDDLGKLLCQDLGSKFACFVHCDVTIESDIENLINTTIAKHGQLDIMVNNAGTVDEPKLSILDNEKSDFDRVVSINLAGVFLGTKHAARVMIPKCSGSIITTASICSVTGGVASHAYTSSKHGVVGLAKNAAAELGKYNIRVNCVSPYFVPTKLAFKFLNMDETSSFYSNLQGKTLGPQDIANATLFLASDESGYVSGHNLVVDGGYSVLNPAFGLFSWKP
Description: spectrophotometric cofactor use. In kind it is biochemical.

The target of experiment [2] is T2, SrBDH1 (Salvia rosmarinus, UniProt A0A8K1HPF5).
T2 construct: N-terminal His-tag (pET15b), codon-optimised, E. coli BL21(DE3); homotetramer by SEC/MALS
T2 sequence (A0A8K1HPF5 1-270): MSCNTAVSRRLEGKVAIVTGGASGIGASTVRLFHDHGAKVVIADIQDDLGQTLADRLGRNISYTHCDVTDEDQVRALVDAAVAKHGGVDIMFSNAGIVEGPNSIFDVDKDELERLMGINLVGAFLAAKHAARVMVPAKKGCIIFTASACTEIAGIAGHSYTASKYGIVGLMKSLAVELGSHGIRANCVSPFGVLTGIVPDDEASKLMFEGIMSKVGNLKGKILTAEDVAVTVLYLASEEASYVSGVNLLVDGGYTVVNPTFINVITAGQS
Description: X-ray crystal structure of binary complex ([…] Å). In kind it is binding. The settings on record: NAD+ co-purified with the enzyme; two crystal forms (high salt; PO/OH).

In experiment [3] the target is Borneol-type dehydrogenase 1 from Salvia rosmarinus (Salvia rosmarinus). The experiment in a line: SEC-MALS; Superdex 200 increase 10/300 with miniDAWN TREOS and refractive index detector; 18 °C.
The target is the same in experiment [4]. The experiment in a line: SEC; HiLoad 16/60 Superdex 200; Tris-HCl 100 mM, 500 mM NaCl, pH 8; 1 mL/min; calibrated with mass standards (44-440 kDa). On the technique in general: In gel filtration, larger molecules generally elute earlier.
For experiment [5] the target is unchanged. Description: crystal structure; sitting-drop vapor diffusion at 18 °C; two conditions: high NaCl (2.7-3.2 M, Bis-Tris pH 5.5-7.2) and pentaerythritol propoxylate (PO/OH, HEPES pH 7.0-7.8); tetramer in both.
The target of experiment [6] is Borneol-type dehydrogenase 2 from Salvia rosmarinus (Salvia rosmarinus). The experiment in a line: SEC; HiLoad 16/60 Superdex 200; Tris-HCl 100 mM, 500 mM NaCl, pH 8; 1 mL/min; calibrated with mass standards (44-440 kDa).
For experiment [7], the target named is Borneol-type dehydrogenase 3 from Salvia officinalis (Salvia officinalis L.). The experiment is described as above.

For `NC(=O)c1ccc[n+]([C@@H]2O[C@H](COP(=O)(O)OP(=O)(O)OC[C@H]3O[C@@H](n4cnc5c(N)ncnc54)[C@H](OP(=O)(O)O)[C@@H]3O)[C@@H](O)[C@H]2O)c1` [NADP^+], the spectrophotometric cofactor use result in experiment [1] is listed as “AaADH2 was the only enzyme also capable of using NADP^+”.
Turning to `NC(=O)c1ccc[n+]([C@@H]2O[C@H](COP(=O)(O)OP(=O)(O)OC[C@H]3O[C@@H](n4cnc5c(N)ncnc54)[C@H](O)[C@@H]3O)[C@@H](O)[C@H]2O)c1` [NAD^+], the “X-ray crystal structure of binary complex (2.8 Å)” value in experiment [2] is given as “the structure represents the binary complex (SrBDH1 ⋅ NAD^+ /high salt)”.
As for “Borneol-type dehydrogenase 1 from Salvia rosmarinus (enzyme)”, the stoichiometry N in experiment [3], in experiment [4] and in experiment [5] was 4 each time.
“Borneol-type dehydrogenase 2 from Salvia rosmarinus (enzyme)” displayed a stoichiometry N in experiment [6] of 4.
“Borneol-type dehydrogenase 3 from Salvia officinalis (enzyme)” yielded a stoichiometry N in experiment [7] of 4.

The values are drawn from publication PMC8261865, “A Structural View on the Stereospecificity of Plant Borneol‐Type Dehydrogenases” (Chemcatchem, 2021).
